Source: paper doi:10.1101/2024.07.10.602929 (bioRxiv, 2024)
Where no end group is shown, it is not given here. [ ]: non-standard residue; d: D form. The star is where a group is joined. Biotin = O=C1N[C@H]2[C@H](CS[C@H]2CCCCC(=O)*)N1; pY = N[C@@H](Cc1ccc(OP(=O)(O)O)cc1)C(=O)O

B1: EGFR LIR1 peptide (EGFR residues 1076–1099), N-terminally biotinylated (peptide)
peptide: Biotin-ALTEDSIDDTFLPVPEYINQSVPK
notes: Epidermal growth factor receptor (EGFR), residues 1076-1099 of the regulatory C-terminal domain, core LIR FLPV at 1086-1089; also called EGFR LIR1_(1076–1099); source: synthetic peptide, bought: CASLO (≥95% purity)
B2: EGFR LIR2 peptide (EGFR residues 1190–1210), N-terminally biotinylated (peptide, UniProt P00533 1190-1210, looked up)
peptide: Biotin-STAENAEYLRVAPQSSEFIGA
notes: Epidermal growth factor receptor (EGFR), residues 1190-1210, core LIR YLRV at 1197-1200; source: synthetic peptide, bought: CASLO (≥95% purity)
B3: EGFR LIR1 peptide phosphorylated at Y1092 (peptide, UniProt P00533 1076-1099, looked up)
peptide: Biotin-ALTEDSIDDTFLPVPE[pY]INQSVPK
notes: EGFR residues 1076-1099 (LIR1); also called phosphorylated (p) EGFR LIR1 variant pY1092; source: synthetic peptide, bought: CASLO (≥95% purity)
B4: EGFR LIR2 peptide phosphorylated at Y1197 (peptide, UniProt P00533 1190-1210, looked up)
peptide: Biotin-STAENAE[pY]LRVAPQSSEFIGA
notes: EGFR residues 1190-1210 (LIR2); also called LIR2 pY1197; source: synthetic peptide, bought: CASLO (≥95% purity)
B5: PCM1 LIR peptide (pericentriolar material 1 protein residues 1954-1968), N-terminally biotinylated (peptide, UniProt Q15154 1954-1968, looked up)
peptide: Biotin-ISQKSDEEDFVKVED
notes: Pericentriolar material 1 protein (PCM1), LIR motif, residues 1954-1968; source: synthetic peptide, bought: CASLO (≥95% purity)

Legend:
Experiment in all cases: BLI; Octet Red 96; N-terminally biotinylated peptides immobilised on High Precision Streptavidin (SAX) biosensors; purified hATG8 proteins as analyte in increasing concentrations; steady-state evaluation, one-site binding model; individual measurements unless stated otherwise
Conditions in all cases: both partners purified
GABARAPL1 = target: T1, GABARAPL1 (human, UniProt Q9H0R8 1-117)
T1 construct: GABARAPL1, human, full-length (unprocessed) version; source: E. coli BL21(DE3), pGEX-4-T2, purified (Glutathione Sepharose 4B, thrombin cleavage, SEC)

GABARAPL2 = target: T2, GABARAPL2 (human, UniProt P60520 1-117)
T2 construct: GABARAPL2, human, full-length (unprocessed) version; source: E. coli BL21(DE3), pGEX-4-T2, purified (Glutathione Sepharose 4B, thrombin cleavage, SEC)

LC3A = target: T3, LC3A (human, UniProt Q9H492 1-121)
T3 construct: LC3A, human, full-length (unprocessed) version; also called MAP1LC3 (microtubule-associated protein 1 light chain 3) A; source: E. coli BL21(DE3), pGEX-4-T2, purified (Glutathione Sepharose 4B, thrombin cleavage, SEC)

[1] = target: T4, GABARAP (γ-aminobutyric acid type A receptor-associated protein) (human, UniProt O95166 1-117)
T4 construct: GABARAP, human, full-length (unprocessed) version; For the NMR titrations the same construct was made 15N-labelled in M9 minimal medium; also called 15N-GABARAP; free GABARAP; source: E. coli BL21(DE3), pGEX-4-T2, purified (Glutathione Sepharose 4B, thrombin cleavage, SEC)

GABARAP Y49A/L50A = target: T5, GABARAP Y49A/L50A (human, UniProt O95166 1-117, Y49A | L50A)
T5 construct: GABARAP, human, full-length (unprocessed) version with Y49A and L50A; source: E. coli BL21(DE3), pGEX-4-T2, purified (Glutathione Sepharose 4B, thrombin cleavage, SEC)

GABARAPL1 Y49A/L50A = target: T6, GABARAPL1 Y49A/L50A (human, UniProt Q9H0R8 1-117, Y49A | L50A)
T6 construct: GABARAPL1, human, full-length (unprocessed) version with Y49A and L50A; everywhere else Y49A/L50A; also called GABARAPL1_(Y49A/L59A); source: E. coli BL21(DE3), pGEX-4-T2, purified (Glutathione Sepharose 4B, thrombin cleavage, SEC)
T6 sequence (Q9H0R8 whole entry Y49A/L50A): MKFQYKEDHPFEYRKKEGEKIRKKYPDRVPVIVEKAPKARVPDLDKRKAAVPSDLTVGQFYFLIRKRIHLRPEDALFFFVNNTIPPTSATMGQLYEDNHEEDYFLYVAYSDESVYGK

T2 sequence (P60520 whole entry): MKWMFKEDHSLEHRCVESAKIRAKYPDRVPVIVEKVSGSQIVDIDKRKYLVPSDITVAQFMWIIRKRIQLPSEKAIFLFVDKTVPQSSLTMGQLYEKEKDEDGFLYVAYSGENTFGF
T4 sequence (O95166 whole entry): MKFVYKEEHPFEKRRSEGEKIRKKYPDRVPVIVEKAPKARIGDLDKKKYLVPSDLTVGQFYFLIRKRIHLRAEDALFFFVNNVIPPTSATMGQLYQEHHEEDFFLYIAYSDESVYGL
T5 sequence (O95166 whole entry Y49A/L50A): as the sequence (O95166 whole entry) above, with Y49A, L50A counted along it

| Binder | binding result (GABARAPL1) | binding result (GABARAPL2) | binding result (LC3A) | also measured |
| --- | --- | --- | --- | --- |
| B1 |  |  |  | Kd (GABARAPL1): 29.7 µM |
| B2 | binds | binds | binds |  |
| B3 |  | binds | binds |  |
| B4 | binds | binds | binds | binding result [1]: binds |
| B5 |  |  |  | Kd [1]: 4.2 µM; Kd (GABARAP Y49A/L50A): 99.2 µM; Kd (GABARAPL1 Y49A/L50A): 273 µM |
